This data set deals with MS2 coat protein. Nature of the data set: apparent KD of MS2 coat protein; designed switch direction (-1 OFF switch, 1 ON switch): -1; higher = weaker reporter binding. The gist of the method: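 The buffer was Tris-HCl pH 7.5 with KCl, MgCl2, BSA, DTT, tRNA and Tween-20. In it, SNAP-549-labelled MS2 coat protein was titrated in doubling steps from 0.7 or 1.5 nM to 3 µM over chip-bound RNA switches transcribed by stalled E. coli RNA polymerase on Illumina chips. Apparent KD is the per-design median over clusters of curve fits to normalised fluorescence.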

The mark [1] stands for this setting: input ligand: microRNA oligo, concentration not stated.
Setting [2] is: Eterna round: R95, input ligand: microRNA oligo, concentration not stated.
Where [3] appears, read: Eterna round: R95, input ligand: FMN 200 uM.
Where [4] appears, read: Eterna round: R95, input ligand: none.

Consider 13 sequences from the supplement of paper PMC9170038.

For the sequence “UUACUCGCAGGAUAUACGGGACAUACACAUCAAACUACACGACAUGAGGAUCACCCAUGUAGAAGGGCGUUACA [Blue and Green] (Eterna round: R97, puzzle: Exclusion 2)”, the “apparent KD of MS2 coat protein” value (input ligand: FMN 200 uM) was 0.0735 µM and the “apparent KD of MS2 coat protein” value (input ligand: none) was found to be 0.0512 µM.

Turning to “UUACUGCAAGGAUAUACAUGAGGAUCACCCAUGUUAAUGACACGGUGCAGCUUCGACAGUAGAAGGUGCGUGGG [Eternabot (L1) Solution 71] (Eterna round: R97, puzzle: Exclusion 3)”, the “apparent KD of MS2 coat protein” value (input ligand: FMN 200 uM) was found to be 0.0432 µM and the “apparent KD of MS2 coat protein” value (input ligand: none) stood at 0.0347 µM.

Turning to “UUAGAAAGGUUAGGAUAUUAAUUAUUGUAUAGUAUGAUCUACAUGAGGAUCACCCAUGUUAAAUAUAAGAAGGAACGUUAGAUU [JR_ExcNG2_Sub093] (Eterna round: R96, puzzle: Exclusion NG 2)”, the “apparent KD of MS2 coat protein” value under setting [1] came to 0.0399 µM.

For the sequence “UUAGAAAUGGUAGGAUAUUAGUAGUGUUUUACUCUGAUCCACAUGAGGAUCACCCAUGUGAGUAGUGAGAAGGAUCAUUUUAUG [base off of JR design] (Eterna round: R96, puzzle: Exclusion NG 2)”, the “apparent KD of MS2 coat protein” value (input ligand: FMN 200 uM) worked out at 0.0211 µM, the “apparent KD of MS2 coat protein” value under setting [1] amounted to 0.0178 µM and the “apparent KD of MS2 coat protein” value (input ligand: none) amounted to 0.0193 µM.

For “UUAUAAAGAGUGAGGAUAUGCUGGUCCUUGGAUCAGCAGAAGGCACAUGAGGAUCACCCAUGUAAAAUAAUAUU [Mat - Exclusion 4 - JL Mod - D40] (puzzle: Brourd's mod of Exclusion 4)”, the “apparent KD of MS2 coat protein” value under setting [2] was determined as 0.0254 µM.

Take “UUAUACAAGCAAAGAUCCCACAUGAGGAUCACCCAUGUGCUCGUCUUAUAAGGAACUGUGACGAAAGUCACGGUUCC [Mat - Sensor, turn-off var - Eli Mod - D100] (Eterna round: R97, puzzle: Sensor, turn-off variant 1)”: the “apparent KD of MS2 coat protein” value is, setting by setting: (input ligand: FMN 200 uM) 0.0362 µM; (input ligand: none) 0.0372 µM.

In the case of “UUAUACGGUGAGGAUAUCUCCACUAAAGUGUGAAGAGAAGGCGCUACAUGAGGAUCACCCAUGUCUAUGGGCAG [Ex-6 Malc#16] (puzzle: Exclusion 6)”, the “apparent KD of MS2 coat protein” value was found to be 0.905 µM under setting [3], 0.262 µM under setting [2] and 0.32 µM under setting [4].

Turning to “UUAUACGUUGAGGAUAUGUUAUUUAGUAUAGUUACAGAAGGCGAUACAUGAGGAUCACCCAUGUUUAUGGGCAU [Ex-6 Malc#1] (puzzle: Exclusion 6)”, the “apparent KD of MS2 coat protein” value under setting [2] stood at 0.196 µM.

On to “UUAUAGUUAGAGGAUAUAUUAAGGUAUGCUUUGAUAGAAGGCUAGACAUGAGGAUCACCCAUGUAUAUUGGGAU [JR_Ex6_Sub075] (Eterna round: R97, puzzle: Exclusion 6)”, for which the “apparent KD of MS2 coat protein” value (input ligand: FMN 200 uM) turned out to be 0.425 µM and the “apparent KD of MS2 coat protein” value (input ligand: none) is 0.22 µM.

In the case of “UUAUAUAAUGUGAGGAUAUGCUGGUCCAUAGAUCAGCAGAAGGCACAUGAGGAUCACCCAUGUAGUAAAUUUUA [Mat - Exclusion 4 - JL Mod - D12] (puzzle: Brourd's mod of Exclusion 4)”, the “apparent KD of MS2 coat protein” value reads like this: under setting [3], 0.0242 µM; under setting [2], 0.0145 µM; under setting [4], 0.0148 µM.

On to “UUAUAUAGUGUGAGGAUAUGCUGGUCCUUGGAUCAGCAGAAGGCACAUGAGGAUCACCCAUGUAGUUAAAUAUA [Mat - Exclusion 4 - JL Mod - D18] (puzzle: Brourd's mod of Exclusion 4)”, for which the “apparent KD of MS2 coat protein” value is, setting by setting: under setting [3], 0.252 µM; under setting [2], 0.0311 µM; under setting [4], 0.0395 µM.

With “UUAUAUAGUGUGAGGAUAUGCUGGUCCUUGGAUCAGCAGAAGGCACAUGAGGAUCACCCAUGUAGUUAAAUUUA [Mat - Exclusion 4 - JL Mod - D17] (puzzle: Brourd's mod of Exclusion 4)”, the “apparent KD of MS2 coat protein” value under setting [2] stood at 0.0273 µM.

Regarding “UUAUAUAGUGUGAGGAUAUGCUGGUCCUUGGAUCAGCAGAAGGCACAUGAGGAUCACCCAUGUAGUUUAUUUUU [Mat - Exclusion 4 - JL Mod - D4] (puzzle: Brourd's mod of Exclusion 4)”, under setting [2], the “apparent KD of MS2 coat protein” value was determined as 0.0259 µM.
